In patent US20100135991A1 (published 2010):

T1: human ORP150-3x Flag with deletion of amino acids 673-752 (human, UniProt Q9Y4L1 33-999)
T1 construct: Deletion mutant made by overlapping PCR, expressed in Flp-In CHO cells
T1 sequence: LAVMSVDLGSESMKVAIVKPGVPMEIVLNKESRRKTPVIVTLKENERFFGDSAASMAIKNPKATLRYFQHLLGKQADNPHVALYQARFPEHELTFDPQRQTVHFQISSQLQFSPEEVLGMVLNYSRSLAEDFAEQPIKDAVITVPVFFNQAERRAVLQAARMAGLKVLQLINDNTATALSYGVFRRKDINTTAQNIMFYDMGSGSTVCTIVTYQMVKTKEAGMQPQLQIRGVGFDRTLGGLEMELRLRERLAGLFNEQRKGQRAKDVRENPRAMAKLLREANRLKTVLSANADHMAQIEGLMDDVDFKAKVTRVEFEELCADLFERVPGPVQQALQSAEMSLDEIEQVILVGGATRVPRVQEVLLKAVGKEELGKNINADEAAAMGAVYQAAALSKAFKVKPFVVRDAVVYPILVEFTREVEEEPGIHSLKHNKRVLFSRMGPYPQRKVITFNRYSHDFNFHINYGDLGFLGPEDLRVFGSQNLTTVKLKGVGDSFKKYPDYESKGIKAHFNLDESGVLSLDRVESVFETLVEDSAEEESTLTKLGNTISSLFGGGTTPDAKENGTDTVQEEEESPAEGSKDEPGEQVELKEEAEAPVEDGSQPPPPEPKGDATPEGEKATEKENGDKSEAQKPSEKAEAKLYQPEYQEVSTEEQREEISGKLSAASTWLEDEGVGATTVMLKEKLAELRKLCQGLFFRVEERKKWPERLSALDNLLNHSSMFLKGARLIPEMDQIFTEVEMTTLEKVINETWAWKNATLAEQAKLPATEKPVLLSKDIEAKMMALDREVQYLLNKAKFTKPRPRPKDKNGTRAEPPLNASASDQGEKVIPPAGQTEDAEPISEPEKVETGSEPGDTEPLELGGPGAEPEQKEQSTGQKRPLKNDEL

T2: human ORP150-3x Flag with deletion of amino acids 723-732 (human, UniProt Q9Y4L1 33-999)
T2 sequence: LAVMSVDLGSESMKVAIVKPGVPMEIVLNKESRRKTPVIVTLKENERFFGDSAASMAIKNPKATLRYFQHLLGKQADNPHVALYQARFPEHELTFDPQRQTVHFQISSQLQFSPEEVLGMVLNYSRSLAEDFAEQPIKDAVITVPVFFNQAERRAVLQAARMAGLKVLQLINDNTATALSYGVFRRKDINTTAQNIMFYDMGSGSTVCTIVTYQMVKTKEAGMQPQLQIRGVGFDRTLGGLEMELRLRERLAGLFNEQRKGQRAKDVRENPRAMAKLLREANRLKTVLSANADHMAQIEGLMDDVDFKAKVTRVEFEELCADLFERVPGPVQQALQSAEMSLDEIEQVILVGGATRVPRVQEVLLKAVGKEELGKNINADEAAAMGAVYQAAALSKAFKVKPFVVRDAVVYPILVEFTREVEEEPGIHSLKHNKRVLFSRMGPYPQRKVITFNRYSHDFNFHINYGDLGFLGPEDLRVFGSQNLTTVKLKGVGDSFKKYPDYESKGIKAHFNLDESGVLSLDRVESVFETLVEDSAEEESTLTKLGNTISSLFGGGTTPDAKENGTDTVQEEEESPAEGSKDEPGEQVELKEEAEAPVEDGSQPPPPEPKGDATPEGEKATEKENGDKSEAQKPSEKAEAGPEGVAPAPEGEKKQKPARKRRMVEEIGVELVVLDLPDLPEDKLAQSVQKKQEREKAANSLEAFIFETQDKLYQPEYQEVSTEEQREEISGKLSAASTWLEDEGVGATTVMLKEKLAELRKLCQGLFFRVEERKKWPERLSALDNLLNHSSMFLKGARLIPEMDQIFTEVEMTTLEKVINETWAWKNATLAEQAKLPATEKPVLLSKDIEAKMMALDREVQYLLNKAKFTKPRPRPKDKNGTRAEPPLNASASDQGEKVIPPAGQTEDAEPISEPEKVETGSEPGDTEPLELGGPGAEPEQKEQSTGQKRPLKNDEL

T3: zinc-binding alcohol dehydrogenase domain containing 2 (UniProt Q8N4Q0 1-377, limits assumed)
T3 construct: also called unrelated protein
T3 sequence (looked up): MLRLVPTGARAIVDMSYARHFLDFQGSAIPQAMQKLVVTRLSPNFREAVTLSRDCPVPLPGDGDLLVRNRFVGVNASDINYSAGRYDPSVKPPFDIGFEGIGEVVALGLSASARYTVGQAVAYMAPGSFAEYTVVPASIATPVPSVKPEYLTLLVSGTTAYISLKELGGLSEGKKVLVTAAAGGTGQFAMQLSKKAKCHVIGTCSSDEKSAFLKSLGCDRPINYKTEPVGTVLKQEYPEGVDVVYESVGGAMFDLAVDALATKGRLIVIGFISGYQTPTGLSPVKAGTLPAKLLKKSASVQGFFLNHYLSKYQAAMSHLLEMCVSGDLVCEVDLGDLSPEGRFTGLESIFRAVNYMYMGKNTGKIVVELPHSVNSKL

B1: monoclonal antibody 5F4 (antibody, mouse IgM, V domains shown)
VH: QIQLVQSGPELKKPGETVKISCKASDYTFTDYSMHWVKQAPGKGLKWMGWINTETGEPTYADDFKGRFAFPLETSASTAYLQINNLKNEDTATYFCARNHGYNLAYWGQGTLVTVSA
VL: DIVMTQSQKFMSTSVGDRVSLTCKSSQNVRTAVTWYQQKPGQSPKALIYLASNRHTGVPDRFTGSGSGTDFTLTISNVQSEDLADYFCLQHWNYPLTFGGGTKLEIK
notes: Mouse IgM, kappa, from a hybridoma; also called m5F4; murine 5F4
B2: antibody 9A6.2 (antibody, mouse IgM, V domains shown)
VH: EVKLVESGGGLVKPGGSLKLSCAASGFTFSSYAMSWVRQTPEKRLEWVASISSGGSTYYPDSVKGRFTISRDNARNILYLQMSSLRSEDTAMYYCARGRGYYAYYFDYWGQGTTLTVSS
VL: ETTVTQSPASLSVATGEKVTIRCITSTDIDDDMNWYQQKPGEPPKLLISEGNTLRPGVPSRFSSSGYGTDFVFTIENTLSEDVADYYCLQSDNMPFTFGSGTKLEIK
notes: Mouse IgM, kappa

Legend:
[1] = molecular target: T1, human ORP150-3x Flag with deletion of …; test: anti-FLAG capture ELISA and Western blot
Procedure: (§1) Binding of 5F4 to the ORP150 wild type or mutant proteins generated from the supernatant of the transfected cells were tested using ELISA assay by coating the surface with anti-FLAG antibody, allowing binding of the ORP150 proteins in the supernatant to the anti-FLAG antibody, and detecting binding of 5F4 to the ORP150 proteins.
(§2) Binding of 5F4 to the wild type or the mutant ORP150 proteins from the supernatant and cell lysates was also tested using Western blot assays by immunoprecipitation the ORP150 proteins from the supernatant or cell lysates using anti-FLAG antibody, and detecting binding of 5F4 to the ORP150 proteins on the Western blot. The anti-Flag M2 affinity gel (Sigma, Cat. No. A2220) was used to immuno-precipitate the recombinant human ORP150 from the supernatant and cell lysates of the transfected cells. The IP products were subjected to SDS-PAGE and then transferred onto nitrocellulose membrane for Western blotting. […] The blotting signal was detected with Immobilon Western-Chemiluminescent HRP Substrate kits (Millipore, Cat. No. WBKLS0500)
(§3) Based on the Western blotting with anti-FLAG antibody, all the deletion mutants of hORP150 were successfully expressed in Flp-In™ CHO Cells. […] To further characterize the epitope, additional mutant ORP150 proteins were generated. […]

[2] = molecular target: T2, human ORP150-3x Flag with deletion of …; test: anti-FLAG capture ELISA and Western blot
Procedure: as §1, §2, §3

[3] = molecular target: T3, zinc-binding alcohol dehydrogenase …; test: Western blot
Procedure: Western blot was performed to confirm the binding specificity of antibody 3B6.1, 6A4.28 and 9A6.2. […] The amino acid sequences of the heavy and light chain variable region of antibody 3B6.1 (IgM, K), 6A4.28 (IgM, K) and 9A6.2 (IgM, K) are shown in FIGS. 3A and 3B, 4A and 4B, and 5A and 5B, respectively.

Binder	binding result [1]	binding result [2]	binding result [3]
B1	no binding	no binding	–
B2	–	–	no binding
